Experimental data as given in patent US20190351068A1, “COMPOSITIONS AND METHODS FOR DRUG DELIVERY” (priority 2017, published 2019).

Experiments:
choline transporter = assay: Brain uptake of Cy5.5-labeled n(Nimo) after pre-injection of choline-transporter inhibitor; assay type: in vivo, mice; settings: 1.25, 2.5 or 5 μg/kg intraperitoneal 20 mins before n(Nimo); 4 hours after injection
Description: The BBB penetration of the nanocapsules can be attributed to their transcytosis mediated by the choline and acetylcholine receptors. Glioma-bearing mice were intraperitoneally injected with 1.25, 2.5 or 5 μg/kg of choline-transporter inhibitor, hemicholinium-3 (HC-3), 20 mins prior to the injection of Cy5.5-labeled n(Nimo). FIGS. 8A and 8B depict the in-vivo bioluminescent images of the orthotopic U87-EGFRwt glioma xenograft mice and the ex-vivo fluorescent images of the brains 4 hours after injection. […] This method provides an effective antibody delivery strategy for brain tumor treatment.

[1] = Brain fluorescence after intravenous injection of fluorescence-labeled BSA conjugates; assay type: in vivo, Balb/c mice; settings: 5.0 mg/kg intravenous, one day after injection
Description: Protein conjugates were synthesized by conjugating polymer, poly(2-methacryloyloxyethyl phosphorylcholine) (PMPC), to fluorescence-labeled bovine serum albumin (BSA). The BSA conjugates were injected to Balb/c mice via intravenously at a dose of 5.0 mg/kg. One date after the intravenous injection, fluorescence intensity of the mouse brains was compared.

[2] = design: species or system rhesus macaque monkey; settings: rhesus monkey, in vivo
Description: To evaluate the CNS delivery efficiency, Rituximab nanoparticles were administrated to non-human primates (rhesus macaque monkey) at a dose of 5.0 mg/kg via intravenous injection. After intravenous administration, plasma was collected at 1, 2, 3, 5, 7, 10, 14 and 17 days post injection, and CSF was collected at day 3, 10 and 17. […] In sharp contrast, Rituximab in CSF was undetectable by week 2 for the monkey administrated with native Rituximab.

With `C[N+]1(C)CCOC(O)(c2ccc(-c3ccc(C4(O)C[N+](C)(C)CCO4)cc3)cc2)C1.[Br-].[Br-]` (centres unmarked) [HC-3, hemicholinium-3] as the compound, how does the “effect on fluorescent intensity of glioma-bearing brain after Cy5.5-labeled n(Nimo)” value (choline transporter) read?
The value was “significantly reduces the fluorescent intensity”.

Which results are given for “BSA conjugates: poly(2-methacryloyloxyethyl phosphorylcholine) (PMPC) conjugated to fluorescence-labeled bovine serum albumin”?
brain fluorescence intensity relative to mice injected with PBS [1]: 6 times; brain fluorescence intensity relative to mice injected with native BSA [1]: 4 times

With Rituximab as the compound, how does the “Rituximab in CSF” value [2] read?
Its value is “undetectable”.

And the “CSF concentration compared with n-Rituximab” value ([2]; iv)?
The value was “significantly lower CSF concentration”.
